In patent publication US20060258000A1, “Use of steady-state oxygen gradients to modulate animal cell functions” (priority 2003, published 2006):

Legend:
[1] = test system: CYP3A
[2] = test system: CYP2B
Description: Primary rat hepatocytes from 6-well plates or chamber slides were lysed and scraped in SDS buffered (10 mM Tris/HCl (ph 7.4), 0.1% SDS). Samples were added to microcentrifuge tubes with 5 μl of PMSF, homogenized with a pestle, and centrifuged at 16,200 g for 5 minutes. Total protein content in the supernatant was determined using the DC protein assay (Bio-Rad, Hercules, Calif.) and used to normalize sample loading. Samples prepared in sample buffer were loaded (10-20 μg/well) for electrophoresis on a 10% polyacrylamide gel. After overnight transfer on to a PVDF membrane, blots were incubated with a blocking buffered (20 mM Tris-Cl (pH 7.4), 500 mM NaCl, 0.1% Tween 20, and 5% (w/v) milk powder) and washed with buffer without milk powder, incubation for 1 h with primary antibody against rat PEPCK or rat CYP2B (Genset, Woburn, Mass.) was followed by washing and incubation with either anti-sheep (PEPCK) or anti-goat (CYP2B) HRP-conjugated secondary antibody for 45 minutes. After washing, the Pierce SuperSignal chemiluminescence reagent was used for detection. All electrophoresis gels were run with molecular mass markers to verify PEPCK bands (67 kDa) or CYP2B1/2 bands (56 kDa). Optical density measurements were obtained using scanned blot images with 1d gelscan software (Metamorph).

B1: epidermal growth factor (protein, UniProt P01133 23-1207, looked up)
Pro-epidermal growth factor: PQHWSCPEGTLAGNGNSTCVGPAPFLIFSHGNSIFRIDTEGTNYEQLVVDAGVSVIMDFHYNEKRIYWVDLERQLLQRVFLNGSRQERVCNIEKNVSGMAINWINEEVIWSNQQEGIITVTDMKGNNSHILLSALKYPANVAVDPVERFIFWSSEVAGSLYRADLDGVGVKALLETSEKITAVSLDVLDKRLFWIQYNREGSNSLICSCDYDGGSVHISKHPTQHNLFAMSLFGDRIFYSTWKMKTIWIANKHTGKDMVRINLHSSFVPLGELKVVHPLAQPKAEDDTWEPEQKLCKLRKGNCSSTVCGQDLQSHLCMCAEGYALSRDRKYCEDVNECAFWNHGCTLGCKNTPGSYYCTCPVGFVLLPDGKRCHQLVSCPRNVSECSHDCVLTSEGPLCFCPEGSVLERDGKTCSGCSSPDNGGCSQLCVPLSPVSWECDCFPGYDLQLDEKSCAASGPQPFLLFANSQDIRHMHFDGTDYGTLLSQQMGMVYALDHDPVENKIYFAHTALKWIERANMDGSQRERLIEEGVDVPEGLAVDWIGRRFYWTDRGKSLIGRSDLNGKRSKIITKENISQPRGIAVHPMAKRLFWTDTGINPRIESSSLQGLGRLVIASSDLIWPSGITIDFLTDKLYWCDAKQSVIEMANLDGSKRRRLTQNDVGHPFAVAVFEDYVWFSDWAMPSVMRVNKRTGKDRVRLQGSMLKPSSLVVVHPLAKPGADPCLYQNGGCEHICKKRLGTAWCSCREGFMKASDGKTCLALDGHQLLAGGEVDLKNQVTPLDILSKTRVSEDNITESQHMLVAEIMVSDQDDCAPVGCSMYARCISEGEDATCQCLKGFAGDGKLCSDIDECEMGVPVCPPASSKCINTEGGYVCRCSEGYQGDGIHCLDIDECQLGEHSCGENASCTNTEGGYTCMCAGRLSEPGLICPDSTPPPHLREDDHHYSVRNSDSECPLSHDGYCLHDGVCMYIEALDKYACNCVVGYIGERCQYRDLKWWELRHAGHGQQQKVIVVAVCVVVLVMLLLLSLWGAHYYRTQKLLSKNPKNPYEESSRDVRSRRPADTEDGMSSCPQPWFVVIKEHQDLKNGGQPVAGEDGQAADGSMQPTSWRQEPQLCGMGTEQGCWIPVSSDKGSCPQVMERSFHMPSYGTQTLEGGVEKPHSLLSANPLWQQRALDPPHQMELTQ
modifications: Pro-epidermal growth factor
B1 was tested, and the “Effect of EGF on DEX-induced CYP3A induction” value [1] was “remained uniform” and the “Effect of EGF on DEX-induced CYP2B spatial distribution” value [2] was “significant shift in CYP2B spatial distribution was noted from inlet regions to the outlet”.
